According to patent publication US20210253718A1 (MODMAB THERAPEUTICS, published 2021):
Numbering of substitutions follows the chain as printed.

Experiments:
[1] = target: T1, FZD3 cysteine-rich domain (CRD), MYC-tagged and GPI-anchored on CHO cells (human, UniProt Q9NPG1 24-150, GPI anchor); assay: flow cytometry, CHO-CRD cells;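 also: flow cytometry of Fab binding to CHO cells overexpressing a Frizzled CRD, with binding defined as median fluorescence over twice that of CHO cells lacking any Frizzled CRD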
T1 construct: domain: cysteine-rich domain (CRD); also called FZD3 CRD; CHO-myc-FZDGPI; not shown: MYC tag and GPI anchor signal
T1 sequence (looked up): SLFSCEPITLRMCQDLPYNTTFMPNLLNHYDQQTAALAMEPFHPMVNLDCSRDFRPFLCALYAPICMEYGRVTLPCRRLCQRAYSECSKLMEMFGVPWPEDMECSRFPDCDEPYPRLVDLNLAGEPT

[2] = target: T2, FZD5 cysteine-rich domain (CRD), MYC-tagged and GPI-anchored on CHO cells (human, UniProt Q13467 29-156, GPI anchor); assay: flow cytometry, CHO-CRD cells;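 also: flow cytometry of Fab binding to CHO cells overexpressing a Frizzled CRD, with binding defined as median fluorescence over twice that of CHO cells lacking any Frizzled CRD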
T2 construct: also called FZD5 CRD; CHO-myc-FZDGPI; not shown: MYC tag and GPI anchor signal
T2 sequence: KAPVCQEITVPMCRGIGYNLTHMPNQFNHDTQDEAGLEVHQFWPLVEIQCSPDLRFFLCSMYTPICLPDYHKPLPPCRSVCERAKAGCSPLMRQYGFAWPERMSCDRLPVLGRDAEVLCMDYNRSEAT

[3] = target: T3, FZD10 cysteine-rich domain (CRD), MYC-tagged and GPI-anchored on CHO cells (human, UniProt Q9ULW2 30-156, GPI anchor); assay: flow cytometry, CHO-CRD cells;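 also: flow cytometry of Fab binding to CHO cells overexpressing a Frizzled CRD, with binding defined as median fluorescence over twice that of CHO cells lacking any Frizzled CRD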
T3 construct: also called FZD10 CRD; CHO-myc-FZDGPI; not shown: MYC tag and GPI anchor signal
T3 sequence: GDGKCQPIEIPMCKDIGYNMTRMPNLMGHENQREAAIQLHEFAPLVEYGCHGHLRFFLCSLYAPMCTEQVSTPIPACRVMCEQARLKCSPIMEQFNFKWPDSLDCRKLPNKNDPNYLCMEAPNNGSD

[4] = target: FZD7 cysteine-rich domain (CRD), MYC-tagged and GPI-anchored on CHO cells (human, UniProt O75084 45-169); assay: flow cytometry, CHO-CRD cells;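 also: flow cytometry of Fab binding to CHO cells overexpressing a Frizzled CRD, with binding defined as median fluorescence over twice that of CHO cells lacking any Frizzled CRD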
[5] = target: T4, FZD8 cysteine-rich domain (CRD), MYC-tagged and GPI-anchored on CHO cells (human, UniProt Q498S8 31-155 (rat entry), GPI anchor); assay: flow cytometry, CHO-CRD cells
T4 construct: also called FZD8 CRD; CHO-myc-FZDGPI; not shown: MYC tag and GPI anchor signal
T4 sequence: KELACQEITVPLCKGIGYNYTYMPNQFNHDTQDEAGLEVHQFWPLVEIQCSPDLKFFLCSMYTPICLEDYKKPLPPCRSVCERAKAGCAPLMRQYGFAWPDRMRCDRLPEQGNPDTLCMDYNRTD

[6] = target: T5, FZD4 cysteine-rich domain (CRD), MYC-tagged and GPI-anchored on CHO cells (human, UniProt Q9ULV1 42-167, GPI anchor); assay: flow cytometry, CHO-CRD cells
T5 construct: also called FZD4 CRD; CHO-myc-FZDGPI; not shown: MYC tag and GPI anchor signal
T5 sequence: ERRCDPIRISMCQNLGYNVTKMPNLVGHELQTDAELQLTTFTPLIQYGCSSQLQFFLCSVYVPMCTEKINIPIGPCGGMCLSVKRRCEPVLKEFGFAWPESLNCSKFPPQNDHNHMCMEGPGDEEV

[7] = target: T6, FZD9 cysteine-rich domain (CRD), MYC-tagged and GPI-anchored on CHO cells (human, UniProt O00144 35-161, GPI anchor); assay: flow cytometry, CHO-CRD cells
T6 construct: also called FZD9 CRD; CHO-myc-FZDGPI; not shown: MYC tag and GPI anchor signal
T6 sequence: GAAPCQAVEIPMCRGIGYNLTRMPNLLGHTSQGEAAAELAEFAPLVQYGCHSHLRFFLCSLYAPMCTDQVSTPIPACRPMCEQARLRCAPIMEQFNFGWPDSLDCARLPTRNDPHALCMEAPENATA

[8] = target: T7, FZD2 cysteine-rich domain (CRD), MYC-tagged and GPI-anchored on CHO cells (human, UniProt Q14332 35-161); assay: flow cytometry, CHO-CRD cells
[9] = target: T8, FZD6 cysteine-rich domain (CRD), MYC-tagged and GPI-anchored on CHO cells (human, UniProt O60353 20-146, GPI anchor); assay: flow cytometry, CHO-CRD cells
T8 construct: also called FZD6 CRD; CHO-myc-FZDGPI; not shown: MYC tag and GPI anchor signal
T8 sequence: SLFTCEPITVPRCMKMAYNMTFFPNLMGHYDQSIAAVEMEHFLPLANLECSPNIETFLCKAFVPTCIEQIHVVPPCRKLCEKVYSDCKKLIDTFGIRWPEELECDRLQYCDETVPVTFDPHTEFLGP

[10] = target: T1, FZD3 cysteine-rich domain (CRD), …; assay: immunofluorescence, CHO-CRD cells
[11] = target: T3, FZD10 cysteine-rich domain (CRD), …; assay: immunofluorescence, CHO-CRD cells
[12] = target: T5, FZD4 cysteine-rich domain (CRD), …; assay: immunofluorescence, CHO-CRD cells
[13] = target: T6, FZD9 cysteine-rich domain (CRD), …; assay: immunofluorescence, CHO-CRD cells
[14] = target: T7, FZD2 cysteine-rich domain (CRD), …; assay: immunofluorescence, CHO-CRD cells
[15] = target: T8, FZD6 cysteine-rich domain (CRD), …; assay: immunofluorescence, CHO-CRD cells
[16] = target: T9, FZD1 cysteine-rich domain (CRD), MYC-tagged and GPI-anchored on CHO cells (human); assay: flow cytometry, CHO-CRD cells
[17] = target: T9, FZD1 cysteine-rich domain (CRD), …; assay: immunofluorescence, CHO-CRD cells
[18] = target: T10, recombinant human FZD5-Fc chimera (R&D Systems, Catalog no. 1617-FZ) (human, UniProt Q13467 27-167); assay: SPR, Frizzled-Fc chimera;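 also: binding targets are Fc fusions carrying an extracellular Frizzled fragment that contains the CRD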
T10 construct: used for selection and ELISA; Fc part of the bought chimera not given
T10 sequence: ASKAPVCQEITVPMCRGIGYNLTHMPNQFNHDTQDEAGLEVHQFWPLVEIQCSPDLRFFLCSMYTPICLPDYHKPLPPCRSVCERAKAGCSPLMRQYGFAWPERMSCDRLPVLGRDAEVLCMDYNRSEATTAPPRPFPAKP

FZD8-Fc = target: T11, FZD8-Fc (UniProt Q9H461 28-158, limits assumed); assay: SPR, Frizzled-Fc chimera;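 also: binding targets are Fc fusions carrying an extracellular Frizzled fragment that contains the CRD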
T11 construct: extracellular domain; also called Frizzled-Fc chimera (FZD8); not shown: Fc part
T11 sequence (looked up): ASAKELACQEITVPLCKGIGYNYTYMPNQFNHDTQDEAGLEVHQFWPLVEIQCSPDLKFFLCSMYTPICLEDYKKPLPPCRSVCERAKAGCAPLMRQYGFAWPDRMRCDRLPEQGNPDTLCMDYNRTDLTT

B1: Fab-2910 (Fab, V domains shown)
VH: EVQLVESGGGLVQPGGSLRLSCAASGFNISYSYMHWVRQAPGKGLEWVASIYSSSSSTSYADSVKGRFTISADTSKNTAYLQMNSLRAEDTAVYYCARGAMDYWGQGTLVTVSS
VL: DIQMTQSPSSLSASVGDRVTITCRASQSVSSAVAWYQQKPGKAPKLLIYSASSLYSGVPSRFSGSRSGTDFTLTISSLQPEDFATYYCQQWYGSHLITFGQGTKVEIK
notes: Fab
median fluorescence [1]: 3.28 | median fluorescence [2]: 30.5 | median fluorescence [3]: 2.81 | median fluorescence [4]: 10.2 | median fluorescence [5]: 7.91 | median fluorescence [6]: 5 | median fluorescence [7]: 2.74 | median fluorescence [8]: 4.47 | median fluorescence [9]: 2.79 | binding result [10]: no binding | binding result [11]: no binding | binding result [12]: no binding | binding result [13]: no binding | binding result [14]: no binding | binding result [15]: no binding

B2: Fab-2929 (Fab, V domains shown)
VH: B1 VH with S32Y, M34I, S53P
VL: DIQMTQSPSSLSASVGDRVTITCRASQSVSSAVAWYQQKPGKAPKLLIYSASSLYSGVPSRFSGSRSGTDFTLTISSLQPEDFATYYCQQWYSSYGLITFGQGTKVEIK
notes: Fab; also called Fv-2929
median fluorescence [1]: 3.55 | median fluorescence [2]: 27.1 | median fluorescence [3]: 2.64 | median fluorescence [4]: 13 | median fluorescence [5]: 7.91 | median fluorescence [6]: 3.72 | median fluorescence [7]: 3.08 | median fluorescence [8]: 4.29 | median fluorescence [9]: 2.84 | binding result [10]: no binding | binding result [11]: no binding | binding result [12]: no binding | binding result [13]: no binding | binding result [14]: no binding | binding result [15]: no binding

B3: Fab-2906 (Fab, V domains shown)
VH: EVQLVESGGGLVQPGGSLRLSCAASGFNFSSSSIHWVRQAPGKGLEWVAYISSSYGYTYYADSVKGRFTISADTSKNTAYLQMNSLRAEDTAVYYCARTVRGSKKPYFSGWAMDYWGQGTLVTVSS
VL: B1 VL with Y92S, G93W, S94G, H95F
notes: Fab; also called Fv-2906
median fluorescence [1]: 4.03 | median fluorescence [2]: 30.2 | median fluorescence [16]: 5.23 | median fluorescence [3]: 19.8 | median fluorescence [4]: 2.92 | median fluorescence [5]: 10.1 | median fluorescence [7]: 5.05 | median fluorescence [8]: 5.09 | median fluorescence [9]: 3.55 | binding result [10]: no binding | binding result [17]: no binding | binding result [13]: no binding | binding result [14]: no binding | binding result [15]: no binding

B4: Fab-2917 (Fab, V domains shown)
VH: EVQLVESGGGLVQPGGSLRLSCAASGFNFSSSSIHWVRQAPGKGLEWVASISSSYGYTYYADSVKGRFTISADTSKNTAYLQMNSLRAEDTAVYYCARAVWYYWWVWGGFDYWGQGTLVTVSS
VL: DIQMTQSPSSLSASVGDRVTITCRASQSVSSAVAWYQQKPGKAPKLLIYSASSLYSGVPSRFSGSRSGTDFTLTISSLQPEDFATYYCQQSSYSLITFGQGTKVEIK
notes: Fab; also called Fv-2917
median fluorescence [1]: 3.46 | median fluorescence [3]: 2.76 | median fluorescence [4]: 20.5 | median fluorescence [6]: 4.14 | median fluorescence [7]: 3.49 | median fluorescence [8]: 5.57 | median fluorescence [9]: 2.89 | binding result [10]: no binding | binding result [11]: no binding | binding result [12]: no binding | binding result [13]: no binding | binding result [14]: no binding | binding result [15]: no binding

B5: Fab-2918 (Fab, V domains shown)
VH: EVQLVESGGGLVQPGGSLRLSCAASGFNLSYSSIHWVRQAPGKGLEWVASIYSSYSSTSYADSVKGRFTISADTSKNTAYLQMNSLRAEDTAVYYCARFGYWAIDYWGQGTLVTVSS
VL: B1 VL with W91A, Y92F, S94A, H95S, I97F
notes: Fab; also called Fv-2918
median fluorescence [1]: 3.55 | median fluorescence [2]: 29.2 | median fluorescence [3]: 2.81 | median fluorescence [4]: 7.5 | median fluorescence [5]: 7.57 | median fluorescence [6]: 4.07 | median fluorescence [7]: 3.11 | median fluorescence [8]: 4.41 | median fluorescence [9]: 2.69 | binding result [10]: no binding | binding result [11]: no binding | binding result [12]: no binding | binding result [13]: no binding | binding result [14]: no binding | binding result [15]: no binding

B6: IgG-2919 (antibody, V domains shown)
VH: B1 VH with M34I, S56G, M101I
VL: DIQMTQSPSSLSASVGDRVTITCRASQSVSSAVAWYQQKPGKAPKLLIYSASSLYSGVPSRFSGSRSGTDFTLTISSLQPEDFATYYCQQWYSSGHVLITFGQGTKVEIKR
notes: human IgG1 heavy chain (hG1), human kappa light chain (hK)
Kd [18]: 0.194 nM | koff [18]: 8.06e-05 s⁻¹ | kon [18]: 416000 M⁻¹ s⁻¹ | Kd (FZD8-Fc): 0.0427 nM | koff (FZD8-Fc): 2.28e-05 s⁻¹ | kon (FZD8-Fc): 533000 M⁻¹ s⁻¹

B7: IgG-2929 (antibody, V domains shown)
VH: B1 VH with S32Y, M34I, S53P
VL: B2 VL
notes: also called Fv-2929
kon [18]: 2.77e+06 M⁻¹ s⁻¹ | kon (FZD8-Fc): 3.27e+06 M⁻¹ s⁻¹
